Measurements: the nanobody polyreactivity screen of Harvey et al. (2022)

Assay: yeast display, Sf9 membrane polyspecificity reagent, FACS + sequencing; frameworks hold sequencing errors
Outline: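 A nanobody's polyreactivity label depends on the gate it was sorted from. Yeast display cells were stained with 10% biotinylated, detergent-solubilized Sf9 membrane reagent for 1 hour at 4 °C, enriched on streptavidin microbeads and sorted by FACS. The low and high (top ~1%) gates were set on anti-HA fluorescence for expression and streptavidin fluorescence for reagent binding.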

Sequence | polyreactivity (PSR sort gate)
QVQLVESGEGLVQAGGSLRLSCAASGIFPYNAMGWYRQAPGKEREFVAGISRRGGSTYYADSVKGRFTISRDNAKNTVYLQMNSLKPEDTAVYYCAAGTYHKVVRRWASYYYWGQGTQVTVSS | high polyreactivity
QVQLVESGGALDQAGGSLRLTCAASGFIFGVNAKGWYRKAPGKERELVAAITARSGSTYYADSVKGRFTISRDNAKNTVYLQMNSLKPEDTAVYYWATPVYRSTYEYDYWGQGTQVTVSS | low polyreactivity
QVQLVESGGALDQAGGSLRLTCAASGFIFYFYAKGWYRQAPGKERELVAAIDSAGSTNYADSVKGRFTISRDNAKNTVYLQMNSLKPEDTAVYYCAREPDSYVSWRSRYNYWGQGTQVTVSS | low polyreactivity
QVQLVESGGALLQAGGSLRLSCAASGGTFYDYAMGWYRQAPGKERELVAAISASGDSTYYADSVKGRFTISRDNAMNTVYLQMNSLKPEDTAVYYCAAEFTAFDGFDYWGQGTQVTVSS | low polyreactivity
QVQLVESGGALVLAGGSLRLSCAASGFTFQYYAMGWYRQAPGKERELVAAIDWTGGSTYYADSVKGRFTISRDNAKNTVYLQMNSLKPEDTAVYFCNRELTSPRRWHVSRAYDYWGQGTQVTVSS | low polyreactivity
QVQLVESGGALVQAGGRLRLSCAASGRTFRAYAMGWYRQAPGKERELVAAITSGGSTYYADSVKGRFTISRDNAKNTVYLQMNSLKPEDTEVYYCNRRGWSRTHQYDYWGQGTQVTVSS | high polyreactivity
QVQLVESGGALVQAGGSLRISCAASGLTFKLYTMGWYRQAPGKERELLAAISRSGTRTYYADSVKGRFTISRDNAKNTVYLLMNSLKPEDTADYYCAARTDGYRNNYWGQGTQVTVSS | high polyreactivity
QVQLVESGGALVQAGGSLRISCAASGRIFDGYTMGWSRQAPGKERELVAAITSGGGSTYYADSVKGRFTISRDNAKNTVYLQMNSLKPEDTAVYYCAAYRRNTYWGQGTQVTVSS | high polyreactivity
QVQLVESGGALVQAGGSLRLNCAASGRTFGYNAMGWYRQAPGKERELVAAITIGGSTNYADSVKWRFTISRDNAKNNGYLQMNSLLPEDTAVYYCAAYDTLLYWVEFYYWGQGTQVTVSS | low polyreactivity
QVQLVESGGALVQAGGSLRLSCAASGFTFPPSARGWYRQAPGKERELVARITWSGDRTYYADSVKGRFTISRDNAKNTVYLQMNSLKPEDTAVYYCAARRLPRKERKLYYWGQGTQVTVSS | high polyreactivity
QVQLVESGGALVQAGGSLRLSCAASGISFSWYAMGWYRQAPGKEREFVAAISRGGTSTYYADSVKGRLTISRDNAKNTVYLQMNSLKPEDTAVSYCAVQWLYPYDYWGQGTQVTVSS | high polyreactivity
QVQLVESGGALVQAGGSLRLSCAASGITFKPYGMGRYRQAPGKETELVADITSGGITYYADSVKGRFTISRDNAKNTVYLQMNSLKPEDTDVYYCAAVGGRSSYRLDYWGQGTQVTVSS | low polyreactivity
QVQLVESGGALVQAGGSLRLSCAASGLIYSHNAMGWYRQAPGKERELVAAISWRGGRTYYADSVKGRFTISRDNAKNTVYLLMNSLKPEDTAVFYCNKYYGKRYDYLGQGTQVTVSS | high polyreactivity
QVQLVESGGALVQAGGSLRLSCAASGNIFVYYAMGGYRQAPGKERELVAAITSDVSTYYADSVKGRFTISRDNAKNTVYLQMNSLKPEDTAVYYCATTGYGSYVIYWGQGTQVTVSS | low polyreactivity
QVQLVESGGALVQAGGSLRLSCAASGNTFRGYTMGWYRQAPGKEREFVAAISWSGGRTNYADSVKGRFTISRDNAKNTVYLQMNSLTPEDTAVYYCGRDYRARRWGMDYWGQGTQVTVSS | high polyreactivity
QVQLVESGGALVQAGGSLRLSCAASGRIFGVYAMGWYRQAPGKERELVAAITRGASTYYADSVKGRFTISRDNSKNTVYLQMNSLKPEDTAVYYCAVSQYRGIYRKYDYWGHGTQVTVSS | high polyreactivity
QVQLVESGGALVQAGGSLRLSCAASGRTFAKYAMGWYRQAPGKERELFAAINSSGGSTYYADSVKGRFTISRDNAKNTVYLQMNSLKPEDTAVYYCADLGIGSYRRYSGYDYWGQGTQVTVSS | low polyreactivity
QVQLVESGGALVQAGGSLRLSCAASGRTFGLTAMGWYRQAPGKERELVAAITWSDDDTYYADSVKARFTNSRDNAKNTVYLQMNSLKPEDTAVYYCAATYPYRQYDYWGQGTQVTVSS | low polyreactivity
QVQLVESGGALVQAGGSLRLSCAASGRTFYPNAMGGYRQAPGKERELVAGSSYGTGSTYYADSVKGRFTISRDNAKNTVYLQMNSLKAEDNAVYYCAADNWAVNAYYWYIYDYWGQGTQVTVSS | low polyreactivity
QVQLVESGGALVQAGGSLRLSCAASGSIFGSYALGWYRQAPGKERELVASITRVDSTNYADSVKGRFTISRDNAKNTVYLQMNSLKPEDTAVYYCAADITSPAYATYDYWGQGTQVTVSS | low polyreactivity
QVQLVESGGALVQAGGSLRLSCAASGSIFRFYAMGWYRQAPGKERELVAAISWSGGSTYYADSVKGRFTISRDNAKNTVYLQMNSLKPEDTAVYYCNTRYYGGFDSWGQGTQVTVSS | high polyreactivity
QVQLVESGGALVQAGGSLRLSCAASGSIFSRYTMGWYRQAPGKERELVAAIPSSGGRTYYADSVKGRFTNSRDNAKNTVYLQMNSLKPEDTAVYYCNAGGAYEYDYWGQGTQVTVSS | high polyreactivity

Sequence | polyreactivity (PSR sort gate)
QVQLVESGGALVQAGGSLRLSCAASGSIFYVYAMGWYRQAPGKEREFVAAITWSGGRTYYADSVKGRFTISRDNAKNTVYLQMNSLKPEDTAVYYCAAGKYRYTYYALEYDYWGQGTQVTVSS | low polyreactivity
QVQLVESGGALVQAGGSLRLSCAASGSIYGGYTMGWYRHAPGKEMEFVAAISRRGGNTYYADSVKGRFTISRDNAKNTVYLQMNSLKPEDTAVYYCAVRWPSARIQVKLDYWGQGTQVTVSS | high polyreactivity
QVQLVESGGALVQAGGSLRLSCAASGSTFDANVMGWYRQAPGKERELVAAISRDTNTYYADSVKGRFTISRDNAKNTVYLQMNSLKPEDTAVYYYWGQGTQVTVSS | low polyreactivity
QVQLVESGGALVQAGGSLRLSCAASGSTFFHYAMGWYRQAPGKERELVAAIDSNGGSTYYADSVKGRFTISRDNAKNTVYLQMNSLKPEDTAVYYCAADDLAEFEYDYWGQGTQVTVSS | low polyreactivity
QVQLVESGGALVQAGGSLRLSCAASGSTSVDYTMGWYRQAPGNDKDLVAAIDYNGDSTYYADSEKGRFTISRDNAKNTFYLQMNSLKPEDTAVYYCAADVWTLDPEVYDYWGPGTQVTVSS | low polyreactivity
QVQLVESGGALVQAGGSLRLSCAASGYIFAYYAMGWYRQAPGKERELVATISYGGGSTYYADSVKGRFTISRDNAKNTVYLQMNSLKPEDTAVYYCAAVPWASDGYYSWGQGTQVTVSS | low polyreactivity
QVQLVESGGALVQAGGSLRLSCAASGYIFRYYAMGWYRQAPGKVREFVAAISRNGGSKSYADSVKGRFTISRDNAKNTVYLQMISLKPEDTAVYYCNKRVGFLYKSDYWGQGTQVTVSS | high polyreactivity
QVQLVESGGALVQAGGSLRLSCAYSGLTFYGNTMGWYRQAPGKERELDAAITYSGTRTYYADSVKGRFTISRDTAKNTVYLQMNSLKPEDTAVYYCNALSYANSIDTYDYWGQVTQVTVSS | high polyreactivity
QVQLVESGGALVQAGGSLRLSCGASGSTFHPYAMGWYRQAPGKERELVGAITWRVGSTYYADSVKGRFTISRDNAKNTVYLQMNSLKPEETAVYYCAVSYLSTLVRSRYDYWGQGTQVTVSS | low polyreactivity
QVQLVESGGALVQAGGSLRLSCSASGSIFHGYIMGWYRQAPGKERELVAAITTGGSTNYADSVKGRFTISRDNAKNTVYLQMNSLKPEDTAVYDCATDPYVDPSRDYLELGGYWGQGTQVTVSS | low polyreactivity
QVQLVESGGALVQAGGSLRLTCAASGSIYYVNAMGWYRQAPGKERELVAAISVRGGRTYYADSVKGRFTISRDNAKNTFYLQMNSLKPEDTEVYYCATRISTVGRYDYWGQGTQVTVSS | high polyreactivity
QVQLVESGGALVQAGGSLRVSCAASGFIFYGYAMGWYRQAPGKERELVAAISSGGGRTYYADSVKGRFTISRDNAKNTVYLQMNSLKPEDTAVYYCAAKVYYYTGGGGEDYWGQGTQVTVSS | low polyreactivity
QVQLVESGGALVQAGGSLSLSCAASGSTYSYYAMGWYRQAPGKETEVVAAINRSGGSTYYADSVKGRFTISRDNAKYTVYLQMNSLKPEDTAVYYCAALRSKTVSYDRYDYWGQGTQVTVSS | high polyreactivity
QVQLVESGGCIVQAGGSLRLSCAASGLIFGPYAMGWYRQAPGKERELVAAISARGGSTYYADSVKGRFTISRDNAKNTVYLQMNSLKPEDTAVYYCAARQYSVNTHYGYNYWGQGTQVTVSS | high polyreactivity
QVQLVESGGCIVQAGGSLRLSCAASGRNLAPNAMGWSRQAPGKERELVAGITWSGGSTYYADSVKGRFTISRDNAKNTVYLPMNSLKPEDTAVYYCAACRSFPGYGLYYYWGQGTQVTVSS | low polyreactivity
QVQLVESGGCIVQAGGSLRLSCAAYGRIFAKYVMGWSRKAPGKERELVAAITSSGGSTYYADSVKGRFTISRDNAKNTVYVQMNSLKSEDTAVYYGAAGPSYHSSYYSWGQVTQVTVSS | high polyreactivity
QVQLVESGGCLEQAGGSLRLSCAASGFTFVSNDMGWYRQAPGKERELVAAISQGGGSTYYADSVKGRFTISRDNAKNTVYLQMNSLKPEDTAVYYCAAEDVYFGYDYWGQGTQVTVSS | low polyreactivity
QVQLVESGGCLGQAGGSLRLTCAASAFTFRHYTKGWYRQAPGKVRVLVAVITRSGGSTYYADSVKGRFTISRDNAKNTVYLQMNRLKPEDTAVYYCAARYKREYNYWGQGTQVTVSS | high polyreactivity
QVQLVESGGCLLQAGGSLRLSCAASGFTFRKNAMGWYRDAPGKERQLVAAISSGTSTYYADSVKVRFTISRDNAKNTVYLQMNSLKPEDTAVYYCAAARYRTDDYCGQGTQVTVSS | high polyreactivity
QVQLVESGGCLVPAGGSLRLSCAASGRTFYYNAMGWYRQAPGKERELVAAISSSGGRTYYADSVKGRFTISRDNGKNTVYLQMNSLKPEDTAVFYCAALTNARGFDYWGQGTQVTVSS | high polyreactivity
QVQLVESGGCLVQAGGRLRLSCAASGRIFYRYSMGWYRQAPGKERELVAAINDVGSTYYADSVKGRFTISRDNAKNTVYLQMNILKPEDTAVYYCNGVNEHQSDFVVPFDYNHWGQGTQVTVSS | low polyreactivity
